In patent EP4671269A1 (Akeso Biopharma Co., Ltd., dated 2025):
Blank lines part the entries; values can stand above or below the binder they belong to.

How the values were obtained:
[1] = biological target: T1, human TIGIT-hFc (human, UniProt Q495A1 22-141, limits assumed); assay: indirect ELISA, hybridoma screening
T1 construct: Screening antigen of the hybridoma ELISA; not shown: Fc protein fragment of human IgG
T1 sequence (looked up): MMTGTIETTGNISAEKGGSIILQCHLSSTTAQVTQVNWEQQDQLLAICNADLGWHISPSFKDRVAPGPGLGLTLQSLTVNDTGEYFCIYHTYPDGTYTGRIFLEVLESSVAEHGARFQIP

[2] = biological target: T2, TGF-β1 (human, UniProt P01137 279-390); assay: competitive ELISA vs TGF-βRII-His-Biotin, TGF-β1 coated
T2 construct: also called human TGF-β1; TGF-β1 protein

[3] = biological target: T2, TGF-β1; assay: indirect ELISA, TGF-β1 coated
[4] = biological target: T2, TGF-β1; assay: indirect ELISA, TGF-β1 coated; remark: listed apart in the source
[5] = biological target: T3, human TIGIT-mFc (human; mouse, UniProt Q495A1 22-141, limits assumed); assay: competitive ELISA vs CD155-hFc-Biotin, TIGIT-mFc coated
T3 construct: not shown: Fc protein fragment of mouse IgG
T3 sequence (looked up): T1 sequence (looked up)

[6] = biological target: T4, TIGIT on the cell membrane (293T-TIGIT, Jurkat-TIGIT-NFAT-Luc cells) (human, UniProt Q495A1 22-244); assay: FACS, 293T-TIGIT cells
T4 construct: whole, on cells; also called cell membrane surface antigen TIGIT
T4 sequence (looked up): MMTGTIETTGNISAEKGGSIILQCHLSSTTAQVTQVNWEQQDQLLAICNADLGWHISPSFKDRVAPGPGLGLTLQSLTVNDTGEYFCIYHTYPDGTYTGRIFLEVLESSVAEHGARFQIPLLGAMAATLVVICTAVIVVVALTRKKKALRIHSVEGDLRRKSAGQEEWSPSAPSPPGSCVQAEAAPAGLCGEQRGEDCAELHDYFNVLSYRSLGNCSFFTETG

[7] = biological target: T3, human TIGIT-mFc; assay: indirect ELISA, TIGIT-mFc captured on plate
[8] = biological target: T4, TIGIT on the cell membrane (293T-TIGIT, …); assay: competitive FACS vs CD112-mFc, 293T-TIGIT cells
[9] = biological target: T4, TIGIT on the cell membrane (293T-TIGIT, …); assay: competitive FACS vs CD155-mFc, 293T-TIGIT cells

binding result [1]: binds
B1: 26B12 (antibody, V domains shown)
VH: EVQLQESGPGLVKPSQSLSLTCTVTGHSFTSDYAWNWIRQFPGNRLEWMGYISYSDSTNYNPSLKSRISITRDTSKNQFFLQMNSVTTEDTATYYCARLDYGNYGGAMDYWGQGTSVTVSS
VL: DIVLTQSHEFMSTSLRDRVSITCKSSQHVSTAVAWYQQKPGQSPKLLIYSASYRYTGVPDRFTGSGSGTDFTFTISSVKAEDLAVYYCQQHYITPWTFGGGTKLEIK
notes: Murine hybridoma antibody; also called anti-TIGIT antibody 26B12; monoclonal antibody secreted by hybridoma cell line LT019

EC50 [2]: 6.47 nM | EC50 [3]: 0.271 nM | EC50 [4]: 0.356 nM
B2: TGF-βRII-mFc (Fc fusion, UniProt P37173 24-159, looked up)
chain: IPPHVQKSVNNDMIVTDNNGAVKFPQLCKFCDVRFSTCDNQKSCMSNCSITSICEKPQEVCVAVWRKNDENITLETVCHDPKLPYHDFILEDAASPKCIMKEKKKPGETFFMCSCSSDECNDNIIFSEEYNTSNPD
notes: also called TGF-βR2-mFc; not shown: Fc protein fragment of mouse IgG

EC50 [5]: 1.42 nM
B3: 26B12H2L2(hG4DM) (antibody, human IgG4 S228P, kappa, F234A L235A)
heavy: not shown
light: DIQMTQSPSSLSASVGDRVTITCRSSQHVSTALAWYQQKPGKSPKLLIYSASSRYSGVPDRFSGSGSGTDFTFTISSLQPEDFATYYCQQHYITPWTFGGGTKLEIKRTVAAPSVFIFPPSDEQLKSGTASVVCLLNNFYPREAKVQWKVDNALQSGNSQESVTEQDSKDSTYSLSSTLTLSKADYEKHKVYACEVTHQGLSSPVTKSFNRGEC
notes: Humanized anti-TIGIT antibody, IgG4 with F234A and L235A (EU numbering)

EC50 [6]: 1.61 nM | EC50 [7]: 0.055 nM | EC50 [5]: 1.68 nM
B4: RG6058(hG4) (antibody, V domains shown)
VH: EVQLQQSGPGLVKPSQTLSLTCAISGDSVSSNSAAWNWIRQSPSRGLEWLGKTYYRFKWYSDYAVSVKGRITINPDTSKNQFSLQLNSVTPEDTAVFYCTRESTTYDLLAGPFDYWGQGTLVTVSS
VL: not shown
notes: Positive control anti-TIGIT antibody from CN108290946A; also called RG6058(hG4WT)

EC50 [8]: 0.837 nM | EC50 [9]: 1.28 nM
B5: Tiragolumab (antibody, human IgG1, kappa, V domains shown)
VH: B4 VH
VL: not shown
notes: Positive control anti-TIGIT antibody; also called RG6058(hG1WT)
